Data on 44 sequences can be found in the supplement of paper PMC12764529.

± gives the half width of the 95% confidence interval.

Series [1] can be described thus: folding stability dG unfold (combined trypsin and chymotrypsin); higher = more stable. In a few lines: (§1)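 Mini-proteins designed to be under 80 residues and free of cysteine were carried in a PA-tagged cDNA display construct and digested with trypsin and with chymotrypsin. Each protease was applied at 11 threefold-diluted concentrations, alongside a no-protease condition, before sequencing. K50 came from Bayesian fitting of the sequencing counts, and unfolding free energy was obtained by comparing it with a sequence-predicted unfolded-state K50 and a shared folded-state K50, for each protease separately or for both together. Designs were retained only if their AlphaFold2 dimer inter-PAE exceeded 15.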

A short description of series [2]: folding stability dG unfold from chymotrypsin proteolysis; higher = more stable. In a few lines: as §1

As to “SAGGSAMKVEKEGDKVTIIVNAPESLNDKKVLTEKIKKAIEENKNKEVEIIAPPKYKPYAEETIKNSAGGSA [r15_89_JUSTAS]”, the entries for the “folding stability dG unfold” value in series [1] and in series [2] were -0.558 ± 0.39 kcal/mol and -0.217 ± 0.52 kcal/mol, respectively.
On the same counts, the results for “SAGGSAMPSPITVTTFPGGTARLVEFPDGSTAVVEIVEEGPERVLVTTTTPPDGVPTTSVVPAAELSAGGSA [r15_941_JUSTAS]” are -0.537 ± 0.21 kcal/mol and -0.0657 ± 0.072 kcal/mol.
The like results for “SAGGSAMSRTITVEITDPRNGKKLKNVVIDVPEDEDISDEEILKKIGIPEKEAKNIKVSKTTEELESAGGSA [r15_665_JUSTAS]” were, in that order, 0.169 ± 0.19 kcal/mol and 0.365 ± 0.17 kcal/mol.
In the case of “SAGGSAMTPQTLTLPDGTQVTVYYDPSTGKYTITTTTTTPTAQGTGPTTTTTKTVDSEEELLAYLSSAGGSA [r15_31_JUSTAS]”, the figures for the “folding stability dG unfold” value in series [1] and in series [2] were 4.5 ± 0.2 kcal/mol and 4.37 ± 0.13 kcal/mol, respectively.
In the case of “SAGGSAMVVVKITNPNGEKIEIEIEAETEEEAKKAAEELAKKLPKNVKVEVVKVEKVEVKDGKILKSAGGSA [r15_469_TrROS_Hall]”, the “folding stability dG unfold” value in series [1] is less than -1 kcal/mol; in series [2], -0.919 ± 0.74 kcal/mol.
The like results for “SAGGSANAEEIADWLQDRGFKEVEIEKDPENGNVTVEIRNPGGYEWELTINPKNPKITEIEPRPKKSAGGSA [r15_648_TrROS]” were, in that order, -0.523 ± 0.42 kcal/mol and 0.0797 ± 0.097 kcal/mol.
The like results for “SAGGSAPVIVKEASLEEIKELKKKGVKKIILVEKNPEIAEKIKKEFEKEDDIPIETVSEEEAKKLKSAGGSA [r15_243_TrMRF]” were, in that order, -0.718 ± 0.28 kcal/mol and -0.294 ± 0.13 kcal/mol.
For the sequence “SAGGSARVVTAVARHPNSTEATLTVTDSGAAGGTSEITFASPEDLLAAIRNLPASVASVSVRPLLPSAGGSA [r15_589_TrMRF]”, the “folding stability dG unfold” value in series [1] stood at 0.422 ± 0.092 kcal/mol; in series [2] it was 0.806 ± 0.028 kcal/mol.
Regarding “SAGGSASPELQKRIKDALQEENPDYPVTVDEVDPKNNTIMITFNSPWHQKRIEKALKEDGIKITIYSAGGSA [r15_196_TrROS]”, the entries for the “folding stability dG unfold” value in series [1] and in series [2] were -0.618 ± 0.27 kcal/mol and -0.0514 ± 0.38 kcal/mol, respectively.
With “SAGGSAVGYYVETEIEKVEEKTYTFKPDGSPLKYFKNVKKNIKVKKVYVVKPTPDNSVIVDPNIPLSAGGSA [r15_162_JUSTAS]”, the “folding stability dG unfold” value in series [1] was less than -1 kcal/mol; in series [2], -0.618 ± 0.46 kcal/mol.
The like results for “SAGGSDPVSVSTEGGNTYVTVGDTPVLRLSKGKPEPPVLVTLPNGEVIEMPRSEALARDPSTIEFTPGSAGG [r13_802_JUSTAS]” were, in that order, -0.118 ± 0.12 kcal/mol and 0.368 ± 0.042 kcal/mol.
With “SAGGSITTEKSLPETNLTLKTTYEGDTETVEIYHHPESDTPVLLAKETVTFSPDGSVSRKSTVVKIESAGGS [r8_69_JUSTAS]”, the “folding stability dG unfold” value in series [1] is -0.483 ± 0.27 kcal/mol; in series [2], -0.0855 ± 0.17 kcal/mol.
The like results for “SAGGSMETTTLSSTPAELIATVEAEAAAAGKTISEITVTEDPATGLATVPVTIEITPAPALAPAARRSAGGS [r16_584_JUSTAS]” were, in that order, 0.249 ± 0.21 kcal/mol and 0.722 ± 0.065 kcal/mol.
With “SAGGSMKVEYDESTGVTTITLPDGSTITFPAEDTGLTVEASLEDDTLTITVKDPNNPVPLETRTIPSSSAGG [r13_938_JUSTAS]”, the “folding stability dG unfold” value in series [1] was 0.393 ± 0.18 kcal/mol; in series [2] it was 0.935 ± 0.036 kcal/mol.
With “SAGGSNKNSPEDQKRKQQPPQPKVRTIPGPLSEDQIKNLLDNGQPIIIEGPDGEWWVIKNNEIEPISAGGSA [r2_33_TrROS]”, the results for the “folding stability dG unfold” value in series [1] and in series [2] were -0.0552 ± 0.24 kcal/mol and 0.255 ± 0.14 kcal/mol, respectively.
On the same counts, the results for “SAGGSPPYVNISMRRTPNGNMPLKVEIYDKDNEPVAEQEIEIPDMEPGEQWNFTIPIEPNMKLRIESAGGSA [r2_288_TrROS]” are -0.132 ± 0.12 kcal/mol and 0.456 ± 0.13 kcal/mol.
Turning to “SAGGSVLVTLTNPADGTPVTLPTPAEEAEAILASGDTAALEARHPGRPVAAVTVDPVSPRPPVPPGLASAGG [r13_629_JUSTAS]”, the “folding stability dG unfold” value is -0.651 ± 0.38 kcal/mol in series [1] and 0.223 ± 0.095 kcal/mol in series [2].
The like results for “SAGGSVTLPPEEARAYAEAHPDRDLVLSMRPDDSTVTLELSVDPAAPGALSVRRREVFDPAGNATVVDSAGG [r13_481_JUSTAS]” were, in that order, -0.182 ± 0.15 kcal/mol and 0.308 ± 0.13 kcal/mol.
With “SAGGSVVTGVDEEELRAVAEALRAAGHTLADVRIERYPEDGTYRMTVTLVDPATAAPLADVLMVAKASAGGS [r16_750_JUSTAS]”, the entries for the “folding stability dG unfold” value in series [1] and in series [2] were 0.312 ± 0.15 kcal/mol and 0.887 ± 0.13 kcal/mol, respectively.
For “SAGGTIEEIRDQLKNMPPGYHVDLKIPNGRSHSFGSLEDIEDLPITNPNGRKIEITEVQPMPPPDEQSAGGS [r16_680_TrROS]”, the “folding stability dG unfold” value in series [1] is -0.703 ± 0.68 kcal/mol; in series [2] it was 0.195 ± 0.16 kcal/mol.
Consider “SAGGTTTRTTVYFDDGKVYELTDPEEVEKTIKEKLGKNYKIVSEEEYTEPSPDGPPLPARRLKLKKKSAGGS [r16_408_JUSTAS]”, for which the “folding stability dG unfold” value in series [1] is less than -1 kcal/mol; in series [2] it was -0.795 ± 0.33 kcal/mol.
On the same counts, the results for “SAGGVIGTRKKVNKIEKPVPEGATTTPSIIGNTTILTTTAPDGSTVTVTLTKTEPIPGKPDVSEKYEASAGG [r13_804_JUSTAS]” are -0.265 ± 0.12 kcal/mol and 0.11 ± 0.042 kcal/mol.
As to “SAGKTIYIQGPLDELRKLPEIKEVEKTGNHWTLELPNVPIHIEIEPPPPVPVVPPEMPKEQMKEYMKKMSAG [r5_2_TrROS]”, the “folding stability dG unfold” value in series [1] came out at 0.316 ± 0.37 kcal/mol; in series [2] it was 0.646 ± 0.32 kcal/mol.
Regarding “SAGMDEYIRELIEKLPSENPSTSPITYRDKNIEAVTYYPSTNTTTFHFPGGEVISASPSTSIEEILKELSAG [r14_59_JUSTAS]”, the “folding stability dG unfold” value in series [1] is -0.193 ± 0.19 kcal/mol; in series [2] it was 0.198 ± 0.22 kcal/mol.
Consider “SAGMEEILEAAREAIEAGLTVRIEVTFKDGKKEEIEIEVESLEELLEALEKLDEIESVKIEVLAPGEEPSAG [r5_956_TrROS_Hall]”, for which the “folding stability dG unfold” value is 3.61 ± 0.95 kcal/mol in series [1] and 2.95 ± 0.15 kcal/mol in series [2].
Consider “SAGMITLEKTVPLSEATPEKAKEIAEELLEKLKKEGLPEGLEKTSIEITELPGDELIVKVPTKIVSKESAGG [r19_87_JUSTAS]”, for which the “folding stability dG unfold” value in series [1] was less than -1 kcal/mol; in series [2], -0.556 ± 0.14 kcal/mol.
For the sequence “SAGMITRTITTVDPVDPALVAAISPDLVFPDGSTVSRDGDRLVITTPVTLALPPSPDPAGQLVLPTAASAGG [r19_148_JUSTAS]”, the “folding stability dG unfold” value in series [1] was -0.00544 ± 0.17 kcal/mol; in series [2] it was 0.483 ± 0.087 kcal/mol.
On the same counts, the results for “SAGMKTLTGPPEVLEELVEKALKENPNAKTVTIVDGDKSVTVPKDEEVEFLEPAPQPDGEPYVTIEILESAG [r5_130_JUSTAS]” are 0.101 ± 0.13 kcal/mol and 0.669 ± 0.048 kcal/mol.
On to “SAGMKVVRTRTVWADDSDNPTPLAPEVELVRDAPPTFPLPVTVTTPDGRPYTGTLIALDPDREGLVLGGSAG [r5_735_TrMRF]”, for which the “folding stability dG unfold” value in series [1] is -0.29 ± 0.19 kcal/mol; in series [2], 0.254 ± 0.17 kcal/mol.
In the case of “SAGMMRVEVFGDGELLEVTELDGDTVEVPVPPERHRVRVFAPGDDRAAEAEVDPAKGVVVLKVPADARISAG [r5_469_TrMRF]”, the results for the “folding stability dG unfold” value in series [1] and in series [2] were -0.821 ± 0.38 kcal/mol and -0.197 ± 0.24 kcal/mol, respectively.
On the same counts, the results for “SAGMPVLVSAPIPLARGPDGVARIDPALVRALAEAAGFTGRVESVEVRPLPDSYLVAVRLPDSVLLGESAGG [r19_398_TrMRF]” are -0.31 ± 0.11 kcal/mol and 0.672 ± 0.077 kcal/mol.
The like results for “SAGMSSTPQKIVRTTGSTPLPDGSAVSTTTTTYSDGSSTVTTAIPGGLETRATVPPDGTVTTTTAPLLGSAG [r5_168_JUSTAS]” were, in that order, -0.422 ± 0.26 kcal/mol and -0.248 ± 0.23 kcal/mol.
On the same counts, the results for “SAGMVKINVAKLPDGKYVITVVDANDGTPLLELPVDSPEGAEKAAKAIAEELKKKYPDATVEVDYTDFESAG [r5_383_TrMRF]” are 4.13 ± 0.64 kcal/mol and 3.49 ± 0.19 kcal/mol.
With “SAGNPSLKLKTETQVEVTEVSESVLPDGGYTLTKSKFTVTTTIYDTTKPKVLSTETTEETETVATPLVSAGG [r19_136_JUSTAS]”, the “folding stability dG unfold” value in series [1] was found to be 0.0701 ± 0.07 kcal/mol; in series [2], 0.442 ± 0.11 kcal/mol.
The like results for “SAGPLEELLARAERVEEDPSTGKRLVYTSDPELVRAALAEGAPDYTLTESPDDRRSALINFPPLPPGVLSAG [r14_115_JUSTAS]” were, in that order, -0.0125 ± 0.14 kcal/mol and 0.32 ± 0.14 kcal/mol.
In the case of “SAGRPPEALREEVSEETITIPVPSTDSDEAPALTTKVTKTTTRLPTPVTTTTTTTTYPDGTTTTTTTAASAG [r5_580_JUSTAS]”, the “folding stability dG unfold” value in series [1] was -0.061 ± 0.11 kcal/mol; in series [2] it was 0.285 ± 0.033 kcal/mol.
On the same counts, the results for “SAGSETVLKTTTEPRTEPDSEVETTTEVYPDGKRITRTTTTYPNPGEGNPATPVTTTTTTVTELPPNELSAG [r5_224_JUSTAS]” are less than -1 kcal/mol and -0.378 ± 0.12 kcal/mol.
For the sequence “SAGSIQVSESALAPGYSLYTITIPYQSIEDAKKLVEEIVSKRFSVPAEIIETKVDPNTGVVTFTVKVPPSAG [r5_810_JUSTAS]”, the “folding stability dG unfold” value in series [1] was determined as 5.32 ± 0.15 kcal/mol; in series [2], 5.31 ± 0.088 kcal/mol.
In the case of “SAGSSRIIFYPENNTYLIETPEGSFTLPETVTTTTPAPTGENPDRTVPRPTTTYVATELSLEEAEKLLSSAG [r5_234_JUSTAS]”, the “folding stability dG unfold” value was -0.149 ± 0.076 kcal/mol in series [1] and 0.367 ± 0.051 kcal/mol in series [2].
On the same counts, the results for “SAGSVTVEVFGPGRLLATYTLDDTTTTVAVPPEPVRVRIRSPGDDAEATADADPATGVVTVTVPADLGLSAG [r5_469_JUSTAS]” are 0.165 ± 0.064 kcal/mol and 0.679 ± 0.05 kcal/mol.
On to “SAGTITKLKTEYDPKGYRFIELLDPLPNDPSVPAEALAQEIKEKYGAEKAEIKPVPGTGAIRILLIKPESAG [r14_228_JUSTAS]”, for which the “folding stability dG unfold” value in series [1] was -0.67 ± 0.42 kcal/mol; in series [2], -0.396 ± 0.48 kcal/mol.
The like results for “SAGTVFVAHSDDRPPVAAPETGTVTLPAPDGARVTLRRLPDGTAVVTPDGGESRTLGPGARVEVRLLPASAG [r5_869_TrMRF]” were, in that order, less than -1 kcal/mol and -0.156 ± 0.37 kcal/mol.
“SAGVEPTPDGKWRIEINPEEGHIRVRMKNGEPHEIPFPEGSLDDFADEIAEKMGFPPDKPFKIDEIEIWSAG [r5_923_TrROS]”: the results for the “folding stability dG unfold” value in series [1] and in series [2] were -0.273 ± 0.19 kcal/mol and -0.0363 ± 0.21 kcal/mol, respectively.
As for “SAGVKIKWEPIDRDPKNGHVYYSITIKVPKDGKPLDEIPIGMYQFDNDDGKWEPMPEEDIKQQAKDLLNSAG [r5_909_TrROS]”, the figures for the “folding stability dG unfold” value in series [1] and in series [2] were -0.415 ± 0.52 kcal/mol and 0.0649 ± 0.34 kcal/mol, respectively.
